Assay results published in US20180244795A1.

Legend:
[1] = target: hCD37-LEL (Large Extracellular Loop; amino acids 107 to 242 of human CD37 with a 6xHis-tag) (human); experiment: ELISA, denatured-reduced hCD37-LEL coated on the plate, antibody at 2.5 µg/mL
[2] = target: hCD37-LEL (Large Extracellular Loop; amino acids 107 to 242 of human CD37 with a 6xHis-tag) (human); experiment: ELISA, denatured hCD37-LEL coated on the plate, antibody at 10 µg/mL
[3] = target: hCD37-Fc-LAGA (amino acids 107 to 235 of human CD37 fused to human IgG1 Fc-domain) (human); experiment: ELISA, native hCD37-Fc-LAGA coated on the plate, antibody at 5 µg/mL
[4] = target: hCD37-Fc-LAGA (amino acids 107 to 235 of human CD37 fused to human IgG1 Fc-domain) (human); experiment: ELISA, denatured hCD37-Fc-LAGA coated on the plate, antibody at 10 µg/mL
[5] = target: hCD37-ECD-Fc (amino acids 107 to 235 of human CD37 fused to murine IgG2a Fc-domain) (human); experiment: ELISA, native hCD37-ECD-Fc coated on the plate, antibody at 2.5 µg/mL
[6] = target: hCD37-Fc-LAGA (amino acids 107 to 235 of human CD37 fused to human IgG1 Fc-domain) (human); experiment: ELISA, native hCD37-Fc-LAGA coated on the plate, antibody at 10 µg/mL
[7] = target: hCD37-LEL (Large Extracellular Loop; amino acids 107 to 242 of human CD37 with a 6xHis-tag) (human); experiment: ELISA, denatured-reduced hCD37-LEL coated on the plate, antibody at 5 µg/mL
[8] = target: hCD37-Fc-LAGA (amino acids 107 to 235 of human CD37 fused to human IgG1 Fc-domain) (human); experiment: ELISA, denatured-reduced hCD37-Fc-LAGA coated on the plate, antibody at 10 µg/mL
[9] = target: hCD37-LEL (Large Extracellular Loop; amino acids 107 to 242 of human CD37 with a 6xHis-tag) (human); experiment: ELISA, denatured hCD37-LEL coated on the plate, antibody at 5 µg/mL
[10] = target: hCD37-LEL (Large Extracellular Loop; amino acids 107 to 242 of human CD37 with a 6xHis-tag) (human); experiment: ELISA, native hCD37-LEL coated on the plate, antibody at 5 µg/mL
[11] = target: hCD37-LEL (Large Extracellular Loop; amino acids 107 to 242 of human CD37 with a 6xHis-tag) (human); experiment: ELISA, denatured hCD37-LEL coated on the plate, antibody at 2.5 µg/mL
[12] = target: hCD37-LEL (Large Extracellular Loop; amino acids 107 to 242 of human CD37 with a 6xHis-tag) (human); experiment: ELISA, native hCD37-LEL coated on the plate, antibody at 5 µg/mL; remark: listed apart in the source
[13] = target: hCD37-ECD-Fc (amino acids 107 to 235 of human CD37 fused to murine IgG2a Fc-domain) (human); experiment: ELISA, denatured hCD37-ECD-Fc coated on the plate, antibody at 5 µg/mL
[14] = target: hCD37-ECD-Fc (amino acids 107 to 235 of human CD37 fused to murine IgG2a Fc-domain) (human); experiment: ELISA, native hCD37-ECD-Fc coated on the plate, antibody at 5 µg/mL
[15] = target: hCD37-ECD-Fc (amino acids 107 to 235 of human CD37 fused to murine IgG2a Fc-domain) (human); experiment: ELISA, native hCD37-ECD-Fc coated on the plate, antibody at 10 µg/mL
[16] = target: hCD37-Fc-LAGA (amino acids 107 to 235 of human CD37 fused to human IgG1 Fc-domain) (human); experiment: ELISA, native hCD37-Fc-LAGA coated on the plate, antibody at 2.5 µg/mL
[17] = target: hCD37-Fc-LAGA (amino acids 107 to 235 of human CD37 fused to human IgG1 Fc-domain) (human); experiment: ELISA, denatured-reduced hCD37-Fc-LAGA coated on the plate, antibody at 5 µg/mL
[18] = target: hCD37-Fc-LAGA (amino acids 107 to 235 of human CD37 fused to human IgG1 Fc-domain) (human); experiment: ELISA, denatured-reduced hCD37-Fc-LAGA coated on the plate, antibody at 2.5 µg/mL
[19] = target: hCD37-Fc-LAGA (amino acids 107 to 235 of human CD37 fused to human IgG1 Fc-domain) (human); experiment: ELISA, native hCD37-Fc-LAGA coated on the plate, antibody at 2.5 µg/mL; remark: listed apart in the source
[20] = target: hCD37-Fc-LAGA (amino acids 107 to 235 of human CD37 fused to human IgG1 Fc-domain) (human); experiment: ELISA, native hCD37-Fc-LAGA coated on the plate, antibody at 10 µg/mL; remark: listed apart in the source
[21] = target: hCD37-Fc-LAGA (amino acids 107 to 235 of human CD37 fused to human IgG1 Fc-domain) (human); experiment: ELISA, native hCD37-Fc-LAGA coated on the plate, antibody at 5 µg/mL; remark: listed apart in the source
[22] = target: hCD37-LEL (Large Extracellular Loop; amino acids 107 to 242 of human CD37 with a 6xHis-tag) (human); experiment: ELISA, native hCD37-LEL coated on the plate, antibody at 10 µg/mL
[23] = target: hCD37-LEL (Large Extracellular Loop; amino acids 107 to 242 of human CD37 with a 6xHis-tag) (human); experiment: ELISA, native hCD37-LEL coated on the plate, antibody at 2.5 µg/mL
[24] = target: hCD37-Fc-LAGA (amino acids 107 to 235 of human CD37 fused to human IgG1 Fc-domain) (human); experiment: ELISA, denatured hCD37-Fc-LAGA coated on the plate, antibody at 2.5 µg/mL
[25] = target: hCD37-LEL (Large Extracellular Loop; amino acids 107 to 242 of human CD37 with a 6xHis-tag) (human); experiment: ELISA, denatured hCD37-LEL coated on the plate, purified antibody titrated
[26] = target: hCD37-Fc-LAGA (amino acids 107 to 235 of human CD37 fused to human IgG1 Fc-domain) (human); experiment: ELISA, denatured hCD37-Fc-LAGA coated on the plate, antibody at 5 µg/mL
[27] = target: hCD37-LEL (Large Extracellular Loop; amino acids 107 to 242 of human CD37 with a 6xHis-tag) (human); experiment: ELISA, native hCD37-LEL coated on the plate, antibody at 2.5 µg/mL; remark: listed apart in the source
[28] = target: hCD37-LEL (Large Extracellular Loop; amino acids 107 to 242 of human CD37 with a 6xHis-tag) (human); experiment: ELISA, denatured-reduced hCD37-LEL coated on the plate, antibody at 10 µg/mL
[29] = target: hCD37-LEL (Large Extracellular Loop; amino acids 107 to 242 of human CD37 with a 6xHis-tag) (human); experiment: ELISA, native hCD37-LEL coated on the plate, antibody at 10 µg/mL; remark: listed apart in the source
[30] = target: hCD37-ECD-Fc (amino acids 107 to 235 of human CD37 fused to murine IgG2a Fc-domain) (human); experiment: ELISA, denatured hCD37-ECD-Fc coated on the plate, antibody at 2.5 µg/mL
[31] = target: hCD37-ECD-Fc (amino acids 107 to 235 of human CD37 fused to murine IgG2a Fc-domain) (human); experiment: ELISA, denatured hCD37-ECD-Fc coated on the plate, antibody at 10 µg/mL
[32] = target: hCD37-Fc-LAGA (amino acids 107 to 235 of human CD37 fused to human IgG1 Fc-domain) (human); experiment: ELISA, native hCD37-Fc-LAGA coated on the plate, purified antibody titrated (left panel)

hCD37-LEL (Large Extracellular Loop; amino acids 107 to 242 of human CD37 with a 6xHis-tag) (human), sequence (chain, as listed by the source limits assumed): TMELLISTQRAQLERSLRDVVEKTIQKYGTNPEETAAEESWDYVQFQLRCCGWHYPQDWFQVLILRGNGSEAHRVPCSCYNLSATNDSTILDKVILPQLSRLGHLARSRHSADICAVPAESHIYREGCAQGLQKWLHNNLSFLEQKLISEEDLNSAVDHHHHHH
hCD37-ECD-Fc (amino acids 107 to 235 of human CD37 fused to murine IgG2a Fc-domain) (human), sequence (chain, as listed by the source limits assumed): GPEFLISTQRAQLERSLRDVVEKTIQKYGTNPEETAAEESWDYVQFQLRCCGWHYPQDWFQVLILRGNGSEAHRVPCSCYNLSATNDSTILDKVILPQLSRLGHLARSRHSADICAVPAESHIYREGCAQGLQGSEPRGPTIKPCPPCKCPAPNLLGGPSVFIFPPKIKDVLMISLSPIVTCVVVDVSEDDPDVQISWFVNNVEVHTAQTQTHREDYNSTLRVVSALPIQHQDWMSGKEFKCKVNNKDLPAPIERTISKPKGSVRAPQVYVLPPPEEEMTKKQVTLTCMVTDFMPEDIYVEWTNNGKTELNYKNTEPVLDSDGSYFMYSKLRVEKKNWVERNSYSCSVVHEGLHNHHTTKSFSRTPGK
hCD37-Fc-LAGA (amino acids 107 to 235 of human CD37 fused to human IgG1 Fc-domain) (human), sequence (chain, as listed by the source limits assumed): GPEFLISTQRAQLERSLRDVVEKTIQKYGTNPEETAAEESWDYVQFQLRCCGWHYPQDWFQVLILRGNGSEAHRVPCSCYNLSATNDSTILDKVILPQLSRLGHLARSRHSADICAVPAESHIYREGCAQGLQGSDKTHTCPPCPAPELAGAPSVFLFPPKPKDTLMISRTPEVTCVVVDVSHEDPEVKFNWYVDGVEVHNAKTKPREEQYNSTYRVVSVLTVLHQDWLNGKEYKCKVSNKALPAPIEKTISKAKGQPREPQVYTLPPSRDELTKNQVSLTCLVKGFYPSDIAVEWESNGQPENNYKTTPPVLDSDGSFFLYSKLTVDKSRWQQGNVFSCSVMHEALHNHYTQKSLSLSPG

ELISA absorbance at 450 nm [1]: 3.2
ELISA absorbance at 450 nm [2]: 2.8
ELISA absorbance at 450 nm [3]: 2.5
ELISA absorbance at 450 nm [4]: 3.2
ELISA absorbance at 450 nm [5]: 2.2
ELISA absorbance at 450 nm [6]: 2.8
ELISA absorbance at 450 nm [7]: 3.2
ELISA absorbance at 450 nm [8]: 3.3
ELISA absorbance at 450 nm [9]: 2
ELISA absorbance at 450 nm [10]: 2.4
ELISA absorbance at 450 nm [11]: 1.8
ELISA absorbance at 450 nm [12]: 3
ELISA absorbance at 450 nm [13]: 3.1
ELISA absorbance at 450 nm [14]: 2.4
ELISA absorbance at 450 nm [15]: 2.7
ELISA absorbance at 450 nm [16]: 2.4
ELISA absorbance at 450 nm [17]: 3.2
ELISA absorbance at 450 nm [18]: 3.2
ELISA absorbance at 450 nm [19]: 2.1
ELISA absorbance at 450 nm [20]: 2.9
ELISA absorbance at 450 nm [21]: 2.6
ELISA absorbance at 450 nm [22]: 2.7
ELISA absorbance at 450 nm [23]: 3
ELISA absorbance at 450 nm [24]: 3.1
EC50 (read off the curve) [25]: 0.1 nM
ELISA absorbance at 450 nm [26]: 3.1
ELISA absorbance at 450 nm [27]: 2
ELISA absorbance at 450 nm [28]: 3.3
ELISA absorbance at 450 nm [29]: 3
ELISA absorbance at 450 nm [30]: 3.1
ELISA absorbance at 450 nm [31]: 3.1
EC50 (read off the curve) [32]: 3 nM
Substance: NCL-CD37 mouse monoclonal anti-CD37 antibody (clone CT1, Leica Biosystems)
